These results are taken from patent US20230250178A1 (published 2023).

The EC50 is the midpoint of the concentration-response curve. High values mean weaker potency, low ones greater potency. As usually defined, the Kd is the constant that tells how readily two partners part at equilibrium. Broadly, the koff is the rate constant with which the complex falls apart. High values mean fast dissociation, low ones slow dissociation. The term kon denotes the rate constant with which the complex forms. Lower therefore signals slow association.

One experiment deals with T1, human CCR8 (human, UniProt P51685 1-355).
T1 construct: also called hCCR8; P51685_CCR8_HUMAN
Put plainly: FACS. (Flow cytometry measures light scatter and fluorescence of single cells or particles in a stream.)

Another experiment has as its target T2, cynomolgus CCR8 (cynomolgus, UniProt O97665 1-356 (rhesus entry)).
T2 construct: also called cynoCCR8; G7NYJ2_CCR8_MACFA
Kind of experiment: FACS.

Experiment [1] has as its target T3, murine CCR8 (mouse, UniProt P56484 1-353).
T3 construct: also called mCCR8; P56484_CCR8_MOUSE
T3 sequence: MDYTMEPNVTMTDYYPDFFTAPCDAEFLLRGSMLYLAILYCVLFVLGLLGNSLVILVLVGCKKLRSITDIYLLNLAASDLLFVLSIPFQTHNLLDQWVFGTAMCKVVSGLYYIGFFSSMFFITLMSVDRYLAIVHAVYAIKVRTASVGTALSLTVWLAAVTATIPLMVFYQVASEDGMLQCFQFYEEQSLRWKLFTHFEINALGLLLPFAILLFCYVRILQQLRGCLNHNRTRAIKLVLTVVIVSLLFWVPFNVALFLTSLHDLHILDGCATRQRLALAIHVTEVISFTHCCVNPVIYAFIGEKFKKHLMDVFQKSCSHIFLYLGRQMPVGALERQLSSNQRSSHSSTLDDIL
Kind of experiment: FACS, murine iTregs.

Experiment [2] deals with T3, murine CCR8. Kind of experiment: FACS, CHO-mCCR8.
The target in a further experiment is T4, HSA alone (human, UniProt P02768 25-609).
T4 construct: control analyte; also called human serum albumin
Put plainly: SPR, IgG captured. For orientation: In SPR one partner is held on a chip, and binding of the other changes the refractive index at the surface.

Experiment [3] addresses T5, TPP-19951, His6-tagged murine CCR8 TRD fused with human serum albumin (mouse; human, not fully specified).
T5 construct: non-sulfated TRD; also called CCR8-HSA fusion protein (mouse); not shown: human serum albumin (HSA), C-terminal fusion partner
T5 chain: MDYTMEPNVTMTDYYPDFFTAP
Kind of experiment: SPR, IgG captured, TRD-HSA analyte. As for the experimental part: IgGs were captured using anti-human Fc IgGs covalently amine coupled to a CM5 sensor chip. […] The respective CCR8-HSA fusion protein was used as analyte with a concentration range of 1.56-200 nM in multicycle kinetics mode. Obtained sensorgrams were fitted to a 1:1 Langmuir binding model.

T2 sequence (O97665 other isoform, or with tags, fused parts or gaps): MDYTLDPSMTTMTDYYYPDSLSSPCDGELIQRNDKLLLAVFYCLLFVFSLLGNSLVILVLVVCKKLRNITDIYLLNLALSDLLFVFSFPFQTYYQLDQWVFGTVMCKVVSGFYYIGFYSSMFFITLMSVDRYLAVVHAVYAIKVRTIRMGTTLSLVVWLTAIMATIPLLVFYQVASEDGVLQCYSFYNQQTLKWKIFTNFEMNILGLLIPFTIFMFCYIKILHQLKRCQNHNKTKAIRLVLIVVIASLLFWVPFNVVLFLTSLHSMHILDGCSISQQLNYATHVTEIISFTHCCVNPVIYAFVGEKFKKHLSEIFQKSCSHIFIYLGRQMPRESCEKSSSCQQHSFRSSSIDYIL

B1: TPP-14099 (antibody, human IgG1, lambda, V domains shown)
VH: EVQLLESGGGLVQPGGSLRLSCAASGFTFSDYGVHWVRQAPGKGLEWVSGVSWNGSRTHYADSVKGRFTISRDNSKNTLYLQMNSLRAEDTAVYYCVTRGAWGQGTLVTVSS
VL: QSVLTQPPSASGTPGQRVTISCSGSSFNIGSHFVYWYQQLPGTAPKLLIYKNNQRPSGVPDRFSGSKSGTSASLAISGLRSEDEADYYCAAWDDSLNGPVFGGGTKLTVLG
notes: anti-murine CCR8, human IgG1 lambda; also called 497A-M005-F02-hIgG1Lambda
Consider B1, for which the binding result with human CCR8, with cynomolgus CCR8 and with HSA alone was “no binding” in each case. For the same molecule, the EC50 worked out at 13.2 nM in the experiment with murine CCR8 [1] and 3 nM in the experiment with murine CCR8 [2]. Also, the Kd in experiment [3] worked out at 520 nM. The koff in experiment [3] was 0.0011 s⁻¹. In addition, the kon in experiment [3] was 2200 M⁻¹ s⁻¹.
